Assay results: the supplement of paper PMC9170038

Tested on: MS2 coat protein
Assay: apparent KD of MS2 coat protein; designed switch direction (-1 OFF switch, 1 ON switch): -1; higher = weaker reporter binding
Summary of the method: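 Each step of the titration lasted 0.8–1.5 h at the lowest concentration and 10–20 min at the highest. The protein, SNAP-549-labelled MS2 coat protein, went from 0.7 or 1.5 nM doubling to 3 µM over RNA switches transcribed on Illumina chips by stalled E. coli RNA polymerase. Normalised cluster fluorescence was curve-fitted, and the per-design median over clusters is given as apparent KD.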

[1] = input ligand: microRNA oligo, concentration not stated
[2] = Eterna round: R95, input ligand: microRNA oligo, concentration not stated
[3] = Eterna round: R95, input ligand: FMN 200 uM
[4] = Eterna round: R95, input ligand: none

UUCUUUAUACGAGGAUAUCAUACAUGAGGAUCACCCAUGUGGCUGGGUCUGUUUUUAUAUAAUAUUGAGAAGGCGUUUUUCUAU [JR_ExcNG2_Sub073] (Eterna round: R96, puzzle: Exclusion NG 2)
apparent KD of MS2 coat protein (input ligand: FMN 200 uM): 0.291 µM
apparent KD of MS2 coat protein [1]: 0.0798 µM
apparent KD of MS2 coat protein (input ligand: none): 0.0789 µM

ACAAAGGACAUGAGGAUCACCCAUGUGGUGCACAAGUCCAGCAAGGAUAUCCAAGUCCCAUAAACGGAGAAGGUGCAUAAUAAG [Inesxeed] (Eterna round: R96, puzzle: Exclusion NG 3)
apparent KD of MS2 coat protein (input ligand: FMN 200 uM): 0.283 µM
apparent KD of MS2 coat protein [1]: 0.0866 µM
apparent KD of MS2 coat protein (input ligand: none): 0.113 µM

UAUUAGCUAGGAUAUACAUGAGGAUCACCCAUGUCACGGGUCCACUUGUCCUAUGCGUGUAGAAGGAGCGACCC [JL Ceriza mod 3] (puzzle: Exclusion 3)
apparent KD of MS2 coat protein [2]: 0.0207 µM

CUGCUCCGUGUAGGAUAUGCGCGCAACCAACGCGCAGAAGGACAUGAGGAUCACCCAUGUAUGUUAUUAUCACGUGAAGCGUCC [Design 30] (Eterna round: R96, puzzle: Exclusion NG 1)
apparent KD of MS2 coat protein (input ligand: FMN 200 uM): 0.0567 µM
apparent KD of MS2 coat protein [1]: 0.0199 µM
apparent KD of MS2 coat protein (input ligand: none): 0.0182 µM

ACAUGAGGAUCACCCAUGUCCGGCUGGUCCGUUUCGGCUGUCGAGGAUAUAGUUCGGUGUCCGCGCUAGAAGGCGGGAGCCGGC [Aenatbe mod 62] (Eterna round: R96, puzzle: Exclusion NG 3)
apparent KD of MS2 coat protein (input ligand: FMN 200 uM): 0.21 µM
apparent KD of MS2 coat protein [1]: 0.0809 µM
apparent KD of MS2 coat protein (input ligand: none): 0.112 µM

AUUAUGUUAGGAUAUGCUUAUGGUGGAUAAUCGGAUAUGAUGCAGAAGGGACAUGAGGAUCACCCAUGUACUGA [EX4 #24] (Eterna round: R97, puzzle: Exclusion 4)
apparent KD of MS2 coat protein (input ligand: FMN 200 uM): 0.0223 µM
apparent KD of MS2 coat protein (input ligand: none): 0.0227 µM

AAAAGACAAGGAUAUACUUGGAAAAUAAAGCUUGAGGAAGUACUUGAGGAUCACCCAAGUAGAAGGUGUAGGCG [Edtiisre] (Eterna round: R97, puzzle: Exclusion 2)
apparent KD of MS2 coat protein (input ligand: FMN 200 uM): 0.0377 µM
apparent KD of MS2 coat protein (input ligand: none): 0.0315 µM

GCACGGAUGGUAGGAUAUCAGUGCGAUUAGCUCUGAGAAGGACCACAUGAGGAUCACCCAUGUACCUCAAUUAUCCUUCCGUGC [Eli exng1 - 022] (Eterna round: R96, puzzle: Exclusion NG 1)
apparent KD of MS2 coat protein (input ligand: FMN 200 uM): 0.0138 µM
apparent KD of MS2 coat protein [1]: 0.0113 µM
apparent KD of MS2 coat protein (input ligand: none): 0.0177 µM

CCGGAUAUGCAGGAUAUCGUAUCGGAAACGAUACGAGAAGGGUAUACAUGAGGAUCACCCAUGUGUCCUACCGG [Fiskers Ex 6 - 20] (puzzle: Exclusion 6)
apparent KD of MS2 coat protein [2]: 0.0238 µM

CUGAGCAGACGGAGAUCCAACAUGAGGAUCACCCAUGUCUCAAAAGCUUUUUGCUUGUCUUAUCCUCCUCUGUUCAC [Esqutian] (Eterna round: R96, puzzle: Sensor v3, turn-off variant 1)
apparent KD of MS2 coat protein (input ligand: FMN 200 uM): 0.0136 µM
apparent KD of MS2 coat protein [1]: 0.222 µM
apparent KD of MS2 coat protein (input ligand: none): 0.0161 µM

AUCCUACAUGAGGAUCACCCAUGUCAGGAUAUCCAAGAAAUGUGGCCUGAUUGGCCACGGAGAAGGGACGGGUG [jl-ex1-4.60 ViennaUCT mod] (Eterna round: R97, puzzle: Exclusion 1)
apparent KD of MS2 coat protein (input ligand: FMN 200 uM): 0.0472 µM
apparent KD of MS2 coat protein (input ligand: none): 0.045 µM

UUUAAUUUUUUUUUUUUACAAGCUUUUUGCUCGUCUUAUACAUGAGGAUCACCCAUGUAAAUGGGAGAUAAAUUAUC [JMF 17] (puzzle: Sensor v3, turn-off variant 2)
apparent KD of MS2 coat protein [3]: 0.0959 µM
apparent KD of MS2 coat protein [2]: 0.0524 µM
apparent KD of MS2 coat protein [4]: 0.0923 µM

AUGAGGUUAGGAUAUACAUGAGGAUCACCCAUGUUGAAAGGUUAGAUAGGCGAAGAUGGUAGAAGGAACAAAGA [JR_Exclu3_Sub054] (puzzle: Exclusion 3)
apparent KD of MS2 coat protein [3]: 0.0294 µM
apparent KD of MS2 coat protein [2]: 0.0382 µM
apparent KD of MS2 coat protein [4]: 0.0439 µM

CAUUAUGUUGAGGAUAUGCACCAGCUCACUGACGCAGAAGGCGACACAUGAGGAUCACCCAUGUCAGUUCGCGU [salish99_ex6_r004_429] (Eterna round: R97, puzzle: Exclusion 6)
apparent KD of MS2 coat protein (input ligand: FMN 200 uM): 0.0235 µM
apparent KD of MS2 coat protein (input ligand: none): 0.017 µM
